These sequences were tested on Escherichia coli TOP10 (assay: shrunken log2 fold change of peptide-encoding DNA abundance (4.5 h post-induction vs induction); higher = less antimicrobial activity (less host growth inhibition)). Settings: time post-induction: 4.5 h; library: site-saturation at positions 5, 18, 19, 20.
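Also: peptides expressed intracellularly from a pBAD plasmid library in pooled LB shake-flask culture, induced with 0.3% L-arabinose, DNA abundance read by NGS, three biological replicates, DESeq2 with apeglm shrinkage.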

| Sequence | shrunken log2 fold change |
| --- | --- |
| RRIRPRPPRLPRPRPRPWCPPRP | 2.07 |
| RRIRHRPPRLPRPRPRPECWPRP | 0.514 |
| RRIRTRPPRLPRPRPRPTIAPRP | -0.372 |
| RRIRMRPPRLPRPRPRPGMMPRP | 0.185 |
| RRIRERPPRLPRPRPRPIGEPRP | 0.128 |
| RRIRYRPPRLPRPRPRPAIHPRP | -0.406 |
| RRIRLRPPRLPRPRPRPWMKPRP | -0.249 |
| RRIRARPPRLPRPRPRPSKPPRP | -0.281 |
| RRIRMRPPRLPRPRPRPWEQPRP | 0.0405 |
| RRIRWRPPRLPRPRPRPNSWPRP | -0.0727 |
| RRIRYRPPRLPRPRPRPPFFPRP | -0.0804 |
| RRIRKRPPRLPRPRPRPVCVPRP | 0.573 |
| RRIRWRPPRLPRPRPRPGGWPRP | 0.851 |
| RRIRSRPPRLPRPRPRPDGEPRP | 0.0597 |
| RRIRRRPPRLPRPRPRPDASPRP | 0.0354 |
| RRIRLRPPRLPRPRPRPEDAPRP | 0.368 |
| RRIRQRPPRLPRPRPRPVVPPRP | -0.0392 |
| RRIRLRPPRLPRPRPRPIDCPRP | -0.00194 |
| RRIRMRPPRLPRPRPRPDDIPRP | -0.00151 |
| RRIRRRPPRLPRPRPRPADWPRP | 0.652 |
| RRIRTRPPRLPRPRPRPGHSPRP | 0.0834 |
| RRIRGRPPRLPRPRPRPDHSPRP | -0.0179 |
| RRIRGRPPRLPRPRPRPHWPPRP | 2.63 |
| RRIRRRPPRLPRPRPRPWSVPRP | 0.0267 |
| RRIRRRPPRLPRPRPRPAYIPRP | -0.201 |

| Sequence | shrunken log2 fold change |
| --- | --- |
| RRIRCRPPRLPRPRPRPQCIPRP | -0.458 |
| RRIRARPPRLPRPRPRPAIMPRP | 0.161 |
| RRIRIRPPRLPRPRPRPAQMPRP | -0.0791 |
| RRIRNRPPRLPRPRPRPGCNPRP | -0.642 |
| RRIRRRPPRLPRPRPRPFNNPRP | 0.221 |
| RRIRERPPRLPRPRPRPSFVPRP | -0.588 |
| RRIRARPPRLPRPRPRPLVWPRP | 0.774 |
| RRIRHRPPRLPRPRPRPMIWPRP | -0.00298 |
| RRIRDRPPRLPRPRPRPVGKPRP | 0.0278 |
| RRIRERPPRLPRPRPRPMGHPRP | -0.298 |
| RRIRRRPPRLPRPRPRPIAIPRP | 0.108 |
| RRIRRRPPRLPRPRPRPDPEPRP | 0.307 |
| RRIRRRPPRLPRPRPRPRNQPRP | -0.0577 |
| RRIRQRPPRLPRPRPRPCFCPRP | -0.0837 |
| RRIRNRPPRLPRPRPRPIVNPRP | 0.0189 |
| RRIRWRPPRLPRPRPRPRKGPRP | 0.612 |
| RRIRKRPPRLPRPRPRPDNGPRP | -0.0558 |
| RRIRNRPPRLPRPRPRPMEFPRP | -0.136 |
| RRIRDRPPRLPRPRPRPFIAPRP | -0.237 |
| RRIRIRPPRLPRPRPRPMSCPRP | -0.141 |
| RRIRMRPPRLPRPRPRPKLMPRP | 0.718 |
| RRIRCRPPRLPRPRPRPSMHPRP | -0.346 |
| RRIRARPPRLPRPRPRPFMFPRP | 0.189 |
| RRIRGRPPRLPRPRPRPPTCPRP | 0.172 |
| RRIRYRPPRLPRPRPRPYVMPRP | -1.04 |

| Sequence | shrunken log2 fold change |
| --- | --- |
| RRIRPRPPRLPRPRPRPDYNPRP | -0.553 |
| RRIRIRPPRLPRPRPRPAIKPRP | -0.265 |
| RRIRQRPPRLPRPRPRPCHNPRP | -0.0554 |
| RRIRCRPPRLPRPRPRPKQEPRP | 0.0247 |
| RRIRIRPPRLPRPRPRPNSAPRP | -0.234 |
| RRIRHRPPRLPRPRPRPPPIPRP | 0.361 |
| RRIRQRPPRLPRPRPRPVIKPRP | -0.772 |
| RRIRYRPPRLPRPRPRPIYLPRP | -0.0172 |
| RRIRKRPPRLPRPRPRPVKKPRP | 0.505 |
| RRIRTRPPRLPRPRPRPSPSPRP | -0.0444 |
| RRIRYRPPRLPRPRPRPEHYPRP | -0.126 |
| RRIRTRPPRLPRPRPRPQFRPRP | -0.132 |
| RRIRPRPPRLPRPRPRPTHYPRP | 0.206 |
| RRIRCRPPRLPRPRPRPDWDPRP | -0.149 |
| RRIRARPPRLPRPRPRPESCPRP | 0.869 |
| RRIRKRPPRLPRPRPRPERPPRP | 0.407 |
| RRIRVRPPRLPRPRPRPDDKPRP | -0.446 |
| RRIRKRPPRLPRPRPRPPTCPRP | 0.217 |
| RRIRFRPPRLPRPRPRPKHLPRP | -0.0736 |
| RRIRIRPPRLPRPRPRPVHEPRP | -0.139 |
| RRIRVRPPRLPRPRPRPSKIPRP | -0.0852 |
| RRIRLRPPRLPRPRPRPEYGPRP | -0.029 |
| RRIRDRPPRLPRPRPRPGENPRP | -0.00211 |
| RRIRRRPPRLPRPRPRPNMRPRP | 0.104 |
| RRIRGRPPRLPRPRPRPWWIPRP | 0.0656 |

| Sequence | shrunken log2 fold change |
| --- | --- |
| RRIRYRPPRLPRPRPRPFHYPRP | -0.21 |
| RRIRVRPPRLPRPRPRPTMDPRP | -0.116 |
| RRIRNRPPRLPRPRPRPNMKPRP | -0.48 |
| RRIRLRPPRLPRPRPRPSYSPRP | -0.589 |
| RRIRARPPRLPRPRPRPEEPPRP | 1.24 |
| RRIRPRPPRLPRPRPRPMYLPRP | -0.257 |
| RRIRHRPPRLPRPRPRPCLVPRP | 0.214 |
| RRIRFRPPRLPRPRPRPQEGPRP | -0.00638 |
| RRIRKRPPRLPRPRPRPIKSPRP | 3.22 |
| RRIRMRPPRLPRPRPRPFECPRP | 0.0161 |
| RRIRKRPPRLPRPRPRPISHPRP | 0.17 |
| RRIRYRPPRLPRPRPRPYLRPRP | -0.00962 |
| RRIRLRPPRLPRPRPRPCYYPRP | -0.936 |
| RRIRIRPPRLPRPRPRPDRVPRP | -0.0924 |
| RRIRTRPPRLPRPRPRPLFRPRP | -0.353 |
| RRIRRRPPRLPRPRPRPTDQPRP | 0.552 |
| RRIRPRPPRLPRPRPRPGNDPRP | -0.0392 |
| RRIRIRPPRLPRPRPRPSCDPRP | 0.346 |
| RRIRCRPPRLPRPRPRPQPTPRP | 0.319 |
| RRIRMRPPRLPRPRPRPFTIPRP | -0.386 |
| RRIRPRPPRLPRPRPRPGLNPRP | 0.0174 |
| RRIRHRPPRLPRPRPRPAEEPRP | 0.175 |
| RRIRMRPPRLPRPRPRPPCVPRP | 0.389 |
| RRIRVRPPRLPRPRPRPVCWPRP | 0.472 |
| RRIRPRPPRLPRPRPRPVWWPRP | 0.232 |

| Sequence | shrunken log2 fold change |
| --- | --- |
| RRIRERPPRLPRPRPRPRDKPRP | -0.187 |
| RRIRQRPPRLPRPRPRPMVWPRP | -0.0183 |
| RRIRDRPPRLPRPRPRPHQNPRP | -0.303 |
| RRIRKRPPRLPRPRPRPGCMPRP | 0.993 |
| RRIRDRPPRLPRPRPRPPDEPRP | 0.00333 |
| RRIRMRPPRLPRPRPRPFFRPRP | 0.406 |
| RRIRTRPPRLPRPRPRPSERPRP | -0.186 |
| RRIRHRPPRLPRPRPRPEEYPRP | -0.289 |
| RRIRDRPPRLPRPRPRPLFWPRP | 0.516 |
| RRIRGRPPRLPRPRPRPMPHPRP | 0.523 |
| RRIRRRPPRLPRPRPRPPGFPRP | 0.468 |
| RRIRFRPPRLPRPRPRPGTFPRP | -0.492 |
| RRIRARPPRLPRPRPRPLNEPRP | 0.137 |
| RRIRKRPPRLPRPRPRPMFLPRP | -0.0587 |
| RRIRNRPPRLPRPRPRPKQQPRP | 0.163 |
| RRIRKRPPRLPRPRPRPSIAPRP | 0.00111 |
| RRIRYRPPRLPRPRPRPPGEPRP | 0.0198 |
| RRIRDRPPRLPRPRPRPYYCPRP | 0.0391 |
| RRIRFRPPRLPRPRPRPSGRPRP | 0.0486 |
| RRIRPRPPRLPRPRPRPCVCPRP | 0.0289 |
| RRIRQRPPRLPRPRPRPSAMPRP | 0.218 |
| RRIRERPPRLPRPRPRPYNTPRP | -0.742 |
| RRIRFRPPRLPRPRPRPINWPRP | -0.113 |
| RRIRQRPPRLPRPRPRPNAEPRP | 0.053 |
| RRIRDRPPRLPRPRPRPWHQPRP | -0.0511 |

| Sequence | shrunken log2 fold change |
| --- | --- |
| RRIRNRPPRLPRPRPRPCGQPRP | 0.0151 |
| RRIRERPPRLPRPRPRPAPRPRP | 0.734 |
| RRIRCRPPRLPRPRPRPYPDPRP | -0.282 |
| RRIRYRPPRLPRPRPRPAPVPRP | 0.125 |
| RRIRRRPPRLPRPRPRPKDNPRP | 0.0969 |
| RRIRERPPRLPRPRPRPDAQPRP | 0.154 |
| RRIRSRPPRLPRPRPRPRIVPRP | -0.174 |
| RRIRDRPPRLPRPRPRPYMKPRP | -0.152 |
| RRIRYRPPRLPRPRPRPFVAPRP | -0.696 |
| RRIRIRPPRLPRPRPRPGVFPRP | 0.292 |
| RRIRKRPPRLPRPRPRPTHSPRP | 0.168 |
| RRIRFRPPRLPRPRPRPPMSPRP | 0.0816 |
| RRIRTRPPRLPRPRPRPCSGPRP | -0.307 |
| RRIRKRPPRLPRPRPRPLMCPRP | -0.122 |
| RRIRRRPPRLPRPRPRPPRLPRP | 1.1 |
| RRIRIRPPRLPRPRPRPSFMPRP | -0.871 |
| RRIRTRPPRLPRPRPRPSVAPRP | 0.00143 |
| RRIRNRPPRLPRPRPRPQCCPRP | -0.0308 |
| RRIRCRPPRLPRPRPRPTCAPRP | 0.178 |
| RRIRDRPPRLPRPRPRPVCKPRP | -0.0246 |
| RRIRGRPPRLPRPRPRPTLMPRP | 0.815 |
| RRIRKRPPRLPRPRPRPATNPRP | 0.712 |
| RRIRIRPPRLPRPRPRPRPNPRP | 0.091 |
| RRIRTRPPRLPRPRPRPKDHPRP | -0.156 |
| RRIRIRPPRLPRPRPRPNVHPRP | -0.398 |
